According to the RNAGym collection of RNA variant scans (doi:10.7554/elife.90254):

B1: LINE1-full (parent)
chain: UACGUAGGUGGUUUUCCCCUGAUAGUGCUAAGGGGGCCUGGAAGUUUGGACUGGGCAGAGCUCAACACAGCGUGGCAAAGUGGCUGUGGCUAGACUGCCUCUCUGGAUUCCUCGUCACUCAGCAGGGCAUCUCUGAGAGAAAUGCC

Variants of: B1
Experiment: self-cleavage, relative activity (ratio to wild type); higher = more cleavage; in vitro, sequencing; the parent is a self-cleaving ribozyme

| Variant | self-cleavage |
| --- | --- |
| UACGUAGGUGGUUUUCCCCUGAUAGUGCUAAGGGGGCCUGGAAGUUUGGACUGGGCAGAGCUCAACACAGCGUGGCAAAGUGGCUGUGGCUAGACUGCCUCUCUGGGUUCCUUGUCACUCAGCAGGGCAUCUCUGAGAGAAAUGCC | 1.39 |
| UACGUAGGUGGUUUUCCCCUGAUAGUGCUAAGGGGGCCUGGAAGUUUGGACUGGGCAGAGCUCAACACAGCGUGGCAAAGUGGCUGUGGCUAGACUGCCUCUCUGGGUUCCUAGUCACUCAGCAGGGCAUCUCUGAGAGAAAUGCC | 1.94 |
| UACGUAGGUGGUUUUCCCCUGAUAGUGCUAAGGGGGCCUGGAAGUUUGGACUGGGCAGAGCUCAACACAGCGUGGCAAAGUGGCUGUGGCUAGACUGCCUCUCUGUAUUCCCCGUCACUCAGCAGGGCAUCUCUGAGAGAAAUGCC | 0.82 |
| UACGUAGGUGGUUUUCCCCUGAUAGUGCUAAGGGGGCCUGGAAGUUUGGACUGGGCAGAGCUCAACACAGCGUGGCAAAGUGGCUGUGGCUAGACUGCCUCUCUGUAUUCCUCGUCACUCAGCAGGGCAUCUCUGUGAGAAAUGCC | 0.83 |
| UACGUAGGUGGUUUUCCCCUGAUAGUGCUAAGGGGGCCUGGAAGUUUGGACUGGGCAGAGCUCAACACAGCGUGGCAAAGUGGCUGUGGCUAGACUGCCUCUCUGGGUUCCUCGUAACUCAGCAGGGCAUCUCUGAGAGAAAUGCC | 1.71 |
| UACGUAGGUGGUUUUCCCCUGAUAGUGCUAAGGGGGCCUGGAAGUUUGGACUGGGCAGAGCUCAACACAGCGUGGCAAAGUGGCUGUGGCUAGACUGCCUCUCUGGGUUCCUCGUCACUCAGCGGGGCAUCUCUGAGAGAAAUGCC | 0.96 |
| UACGUAGGUGGUUUUCCCCUGAUAGUGCUAAGGGGGCCUGGAAGUUUGGACUGGGCAGAGCUCAACACAGCGUGGCAAAGUGGCUGUGGCUAGACUGCCUCUCUGGGUUCCUCGUCAUUCAGCAGGGCAUCUCUGAGAGAAAUGCC | 1.56 |
| UACGUAGGUGGUUUUCCCCUGAUAGUGCUAAGGGGGCCUGGAAGUUUGGACUGGGCAGAGCUCAACACAGCGUGGCAAAGUGGCUGUGGCUAGACUGCCUCUCUGGGUUCCUCAUCACUCAGCAGGGCAUCUCUGAGAGAAAUGCC | 1.18 |
| UACGUAGGUGGUUUUCCCCUGAUAGUGCUAAGGGGGCCUGGAAGUUUGGACUGGGCAGAGCUCAACACAGCGUGGCAAAGUGGCUGUGGCUAGACUGCCUCUCUGAAUUCCUCGUCACUCAGCAGGGCAUCACUGAGAGAAAUGCC | 0.61 |
| UACGUAGGUGGUUUUCCCCUGAUAGUGCUAAGGGGGCCUGGAAGUUUGGACUGGGCAGAGCUCAACACAGCGUGGCAAAGUGGCUGUGGCUAGACUGCCUCUCUGAAUUCCUCGUCACUCAGCAGGGCAUCGCUGAGAGAAAUGCC | 1.67 |
| UACGUAGGUGGUUUUCCCCUGAUAGUGCUAAGGGGGCCUGGAAGUUUGGACUGGGCAGAGCUCAACACAGCGUGGCAAAGUGGCUGUGGCUAGACUGCCUCUCUGGGUUCCUCGUCACUCUGCAGGGCAUCUCUGAGAGAAAUGCC | 1.28 |
| UACGUAGGUGGUUUUCCCCUGAUAGUGCUAAGGGGGCCUGGAAGUUUGGACUGGGCAGAGCUCAACACAGCGUGGCAAAGUGGCUGUGGCUAGACUGCCUCUCUGGCUUCCUCGUCACUCAGCAGGGCAUCUCUGAGAGAAAAGCC | 1.79 |
| UACGUAGGUGGUUUUCCCCUGAUAGUGCUAAGGGGGCCUGGAAGUUUGGACUGGGCAGAGCUCAACACAGCGUGGCAAAGUGGCUGUGGCUAGACUGCCUCUCUGGCUUCCUCGCCACUCAGCAGGGCAUCUCUGAGAGAAAUGCC | 1.38 |
| UACGUAGGUGGUUUUCCCCUGAUAGUGCUAAGGGGGCCUGGAAGUUUGGACUGGGCAGAGCUCAACACAGCGUGGCAAAGUGGCUGUGGCUAGACUGCCUCUCUGGGUUCCUCGUCACUCAGCAGGGCGUCUCUGAGAGAAAUGCC | 1.63 |
| UACGUAGGUGGUUUUCCCCUGAUAGUGCUAAGGGGGCCUGGAAGUUUGGACUGGGCAGAGCUCAACACAGCGUGGCAAAGUGGCUGUGGCUAGACUGCCUCUCUGUAUUCCUCGUCGCUCAGCAGGGCAUCUCUGAGAGAAAUGCC | 1.22 |
| UACGUAGGUGGUUUUCCCCUGAUAGUGCUAAGGGGGCCUGGAAGUUUGGACUGGGCAGAGCUCAACACAGCGUGGCAAAGUGGCUGUGGCUAGACUGCCUCUCUGAAUUCCUCGUCACUCAGCAGGGCAUCUCCGAGAGAAAUGCC | 1.08 |
| UACGUAGGUGGUUUUCCCCUGAUAGUGCUAAGGGGGCCUGGAAGUUUGGACUGGGCAGAGCUCAACACAGCGUGGCAAAGUGGCUGUGGCUAGACUGCCUCUCUGGCUUCCUCGUCACUCAGCAGGGCAUCUCUGGGAGAAAUGCC | 1.73 |
| UACGUAGGUGGUUUUCCCCUGAUAGUGCUAAGGGGGCCUGGAAGUUUGGACUGGGCAGAGCUCAACACAGCGUGGCAAAGUGGCUGUGGCUAGACUGCCUCUCUGGCUUCCUCGUCACUCAGCAGGGCAUCUCUGUGAGAAAUGCC | 1.2 |
| UACGUAGGUGGUUUUCCCCUGAUAGUGCUAAGGGGGCCUGGAAGUUUGGACUGGGCAGAGCUCAACACAGCGUGGCAAAGUGGCUGUGGCUAGACUGCCUCUCUGUAUUCCUCGUCACUCAGCAGGGCAUCUCCGAGAGAAAUGCC | 0.75 |
| UACGUAGGUGGUUUUCCCCUGAUAGUGCUAAGGGGGCCUGGAAGUUUGGACUGGGCAGAGCUCAACACAGCGUGGCAAAGUGGCUGUGGCUAGACUGCCUCUCUGAAUUCCUCGUCACUCAGCAGGGCAUCUCUGAGAGAGAUGCC | 1.16 |

| Variant | self-cleavage |
| --- | --- |
| UACGUAGGUGGUUUUCCCCUGAUAGUGCUAAGGGGGCCUGGAAGUUUGGACUGGGCAGAGCUCAACACAGCGUGGCAAAGUGGCUGUGGCUAGACUGCCUCUCUGCAUUCCUCGUCACUCAGCAGGGCAUCUCUGAGAGAAAUGCC | 1.37 |
| UACGUAGGUGGUUUUCCCCUGAUAGUGCUAAGGGGGCCUGGAAGUUUGGACUGGGCAGAGCUCAACACAGCGUGGCAAAGUGGCUGUGGCUAGACUGCCUCUCUGUAUUCCUCGUCACUCAGCAGGGCAUCUCUGAGAGAAAUGCC | 1.05 |
| UACGUAGGUGGUUUUCCCCUGAUAGUGCUAAGGGGGCCUGGAAGUUUGGACUGGGCAGAGCUCAACACAGCGUGGCAAAGUGGCUGUGGCUAGACUGCCUCUCUGUACUCCUCGUCACUCAGCAGGGCAUCUCUGAGAGAAAUGCC | 1.32 |
| UACGUAGGUGGUUUUCCCCUGAUAGUGCUAAGGGGGCCUGGAAGUUUGGACUGGGCAGAGCUCAACACAGCGUGGCAAAGUGGCUGUGGCUAGACUGCCUCUCUGAAUUCCUCGUCACUCAGCAGGGUAUCUCUGAGAGAAAUGCC | 1.7 |
| UACGUAGGUGGUUUUCCCCUGAUAGUGCUAAGGGGGCCUGGAAGUUUGGACUGGGCAGAGCUCAACACAGCGUGGCAAAGUGGCUGUGGCUAGACUGCCUCUCUGGCUUCCUCGUCACUCAGCAGGGCACCUCUGAGAGAAAUGCC | 0 |
| UACGUAGGUGGUUUUCCCCUGAUAGUGCUAAGGGGGCCUGGAAGUUUGGACUGGGCAGAGCUCAACACAGCGUGGCAAAGUGGCUGUGGCUAGACUGCCUCUCUGGCUUCCUCGUCUCUCAGCAGGGCAUCUCUGAGAGAAAUGCC | 2.03 |
| UACGUAGGUGGUUUUCCCCUGAUAGUGCUAAGGGGGCCUGGAAGUUUGGACUGGGCAGAGCUCAACACAGCGUGGCAAAGUGGCUGUGGCUAGACUGCCUCUCUGGCUUCCUCGUCACUCAGCAGGGCUUCUCUGAGAGAAAUGCC | 2.42 |
| UACGUAGGUGGUUUUCCCCUGAUAGUGCUAAGGGGGCCUGGAAGUUUGGACUGGGCAGAGCUCAACACAGCGUGGCAAAGUGGCUGUGGCUAGACUGCCUCUCUGGGUUCCUCGUCACUCAGCAGGGCAUCUCUGUGAGAAAUGCC | 1.82 |
| UACGUAGGUGGUUUUCCCCUGAUAGUGCUAAGGGGGCCUGGAAGUUUGGACUGGGCAGAGCUCAACACAGCGUGGCAAAGUGGCUGUGGCUAGACUGCCUCUCUGGGUUCCUCGUCACUCAGCAGGGCAUCUCUGAGGGAAAUGCC | 1.42 |
| UACGUAGGUGGUUUUCCCCUGAUAGUGCUAAGGGGGCCUGGAAGUUUGGACUGGGCAGAGCUCAACACAGCGUGGCAAAGUGGCUGUGGCUAGACUGCCUCUCUGUAUUCCUCGUCACUCAGCAGGGCACCUCUGAGAGAAAUGCC | 1.29 |
| UACGUAGGUGGUUUUCCCCUGAUAGUGCUAAGGGGGCCUGGAAGUUUGGACUGGGCAGAGCUCAACACAGCGUGGCAAAGUGGCUGUGGCUAGACUGCCUCUCUGAAUUCCUCGUCACUCAGCAGGUCAUCUCUGAGAGAAAUGCC | 1.49 |
| UACGUAGGUGGUUUUCCCCUGAUAGUGCUAAGGGGGCCUGGAAGUUUGGACUGGGCAGAGCUCAACACAGCGUGGCAAAGUGGCUGUGGCUAGACUGCCUCUCUGUAUUCCUCGUCACUCAGCAGGGCAUCUCUGAGAGAGAUGCC | 0.83 |
| UACGUAGGUGGUUUUCCCCUGAUAGUGCUAAGGGGGCCUGGAAGUUUGGACUGGGCAGAGCUCAACACAGCGUGGCAAAGUGGCUGUGGCUAGACUGCCUCUCUGUAUUCCUCGUCACUCAGCAGGGCAUCUCUGAGGGAAAUGCC | 0.99 |
| UACGUAGGUGGUUUUCCCCUGAUAGUGCUAAGGGGGCCUGGAAGUUUGGACUGGGCAGAGCUCAACACAGCGUGGCAAAGUGGCUGUGGCUAGACUGCCUCUCUGGGUUCCUCGUCACUCAGCAGGGCAUCUCUGAGAGAAUUGCC | 0.74 |
| UACGUAGGUGGUUUUCCCCUGAUAGUGCUAAGGGGGCCUGGAAGUUUGGACUGGGCAGAGCUCAACACAGCGUGGCAAAGUGGCUGUGGCUAGACUGCCUCUCUGGCUUCCUCGUCACCCAGCAGGGCAUCUCUGAGAGAAAUGCC | 2.19 |
| UACGUAGGUGGUUUUCCCCUGAUAGUGCUAAGGGGGCCUGGAAGUUUGGACUGGGCAGAGCUCAACACAGCGUGGCAAAGUGGCUGUGGCUAGACUGCCUCUCUGGGUUCCUCGUCACUCAGCAGGGCAUCUCUGAGAGAAAUGUC | 1.45 |
| UACGUAGGUGGUUUUCCCCUGAUAGUGCUAAGGGGGCCUGGAAGUUUGGACUGGGCAGAGCUCAACACAGCGUGGCAAAGUGGCUGUGGCUAGACUGCCUCUCUGGGUUCCUCGUCACUCAGCAGGGCAUCUCUGAGAGGAAUGCC | 1.87 |
| UACGUAGGUGGUUUUCCCCUGAUAGUGCUAAGGGGGCCUGGAAGUUUGGACUGGGCAGAGCUCAACACAGCGUGGCAAAGUGGCUGUGGCUAGACUGCCUCUCUGAAUUCCUCGUCACUCAGCAGGGCAUCUCUGAGAGAAACGCC | 1.51 |
| UACGUAGGUGGUUUUCCCCUGAUAGUGCUAAGGGGGCCUGGAAGUUUGGACUGGGCAGAGCUCAACACAGCGUGGCAAAGUGGCUGUGGCUAGACUGCCUCUCUGGGUUACUCGUCACUCAGCAGGGCAUCUCUGAGAGAAAUGCC | 1.13 |
